Molecular target: GST-Pol32 (Saccharomyces cerevisiae (budding …, UniProt P47110 1-350))
Assay: EMSA

GST-Pol32 (Saccharomyces cerevisiae, sequence (P47110 whole entry): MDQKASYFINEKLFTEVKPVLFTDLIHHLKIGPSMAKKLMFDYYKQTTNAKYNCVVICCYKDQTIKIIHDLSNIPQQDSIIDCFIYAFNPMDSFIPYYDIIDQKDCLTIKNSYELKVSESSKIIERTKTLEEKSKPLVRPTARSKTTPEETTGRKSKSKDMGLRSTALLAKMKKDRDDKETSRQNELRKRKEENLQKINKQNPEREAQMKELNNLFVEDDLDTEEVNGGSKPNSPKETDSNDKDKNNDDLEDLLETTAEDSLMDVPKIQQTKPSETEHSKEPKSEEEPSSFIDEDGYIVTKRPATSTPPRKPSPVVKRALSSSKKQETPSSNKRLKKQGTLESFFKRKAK

B1: 58bp DNA (dsDNA)
DNA 1: ATACATTTTATGACTGGAAACTTTTTTGTACAACACTCCAATAAACATTTTGATTTTA
DNA 2: TAAAATCAAAATGTTTATTGGAGTGTTGTACAAAAAAGTTTCCAGTCATAAAATGTAT
B1: binds.

Source: paper PMC11098083
